Test results from publication PMC6795507 (Science Advances, 2019).
“And” between values parts separate entries of the source, which are not always exact repeats. Identical values can stand only once.

Legend:
[1] = molecular target: head fiber gp14 of phage P68 (Staphylococcus aureus phage P68); assay: cryo-EM structure
[2] = molecular target: portal protein gp19 of phage P68 (Staphylococcus aureus phage P68); assay: cryo-EM structure
[3] = molecular target: lower collar protein gp18 of phage P68 (Staphylococcus aureus phage P68); assay: cryo-EM structure
[4] = molecular target: major capsid protein gp20 of phage P68 (Staphylococcus aureus phage P68); assay: cryo-EM structure
[5] = molecular target: tail fiber gp17 of phage P68 (in the virion) (Staphylococcus aureus phage P68); assay: cryo-EM structure
crystal structure = molecular target: the molecule itself; assay: crystal structure

Molecule: head fiber gp14 of phage P68 (natural protein)
- stoichiometry N [1]: 3

Molecule: inner core protein gp22 of phage P68 (natural protein)
- stoichiometry N [2]: 6

Molecule: lower collar protein gp18 of phage P68 (natural protein)
- stoichiometry N [3]: 12

Molecule: major capsid protein gp20 of phage P68 (natural protein)
- stoichiometry N [4]: 5 and 6

Molecule: portal protein gp19 of phage P68 (natural protein)
- stoichiometry N [2]: 12

Molecule: tail fiber gp17 of phage P68 (in the virion) (natural protein)
- stoichiometry N [5]: 3

B1: His-tagged tail fiber protein of phage P68 (recombinant) (natural protein)
chain: MAYNENDFKYFDDIRPFLDEIYKTRERYTPFYDDRADYNTNSKSYYDYISRLSKLIEVLARRIWDYDNELKKRFKNWDDLMKAFPEQAKDLFRGWLNDGTIDSIIHDEFKKYSAGLTSAFALFKVTEMKQMNDFKSEVKDLIKDIDRFVNGFELNELEPKFVMGFGGIRNAVNQSINIDKETNHMYSTQSDSQKPEGFWINKLTPSGDLISSMRIVQGGHGTTIGLERQSNGEMKIWLHHDGVAKLLQVAYKDNYVLDLEEAKGLTDYTPQSLLNKHTFTPLIDEANDKLILRFGDGTIQVRSRADVKNHIDNVEKEMTIDNSENNDNRWMQGIAVDGDDLYWLSGNSSVNSHVQIGKYSLTTGQKIYDYPFKLSYQDGINFPRDNFKEPEGICIYTNPKTKRKSLLLAMTNGGGGKRFHNLYGFFQLGEYEHFEALRARGSQNYKLTKDDGRALSIPDHIDDLNDLTQAGFYYIDGGTAEKLKNMPMNGSKRIIDAGCFINVYPTTQTLGTVQELTRFSTGRKMVKMVRGMTLDVFTLKWDYGLWTTIKTDAPYQEYLEASQYNNWIAYVTTAGEYYITGNQMELFRDAPEEIKKVGAWLRVSSGNAVGEVRQTLEANISEYKEFFSNVNAETKHREYGWVAKHQK
- stoichiometry N (crystal structure): 3
